# Data from the RNAGym collection of RNA variant scans (doi:10.1073/pnas.2313332121).
# B1: TPR t1 (parent)
# chain: GACCAAUCUGCCCUCAGAGCUCGAGAACAUCUUCGGAUGCAGAGGAGGCAGGCUUCGGUGGCGCGAUAGCGCCAACGUCCUCAACCUCCAAUGCAUCCCACCACAUGAUGAUGCCUGAAGAGCCUUGGUUUUUUG
# Variants of: B1
# Assay: polymerase ribozyme fitness, log enrichment relative to wild type (log ratio); higher = more active; in vitro selection for triplet polymerase activity
# Summary of the method: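 Each subunit of a heterodimeric triplet polymerase ribozyme was represented by a PCR-built, transcribed mutant library that underwent triplicate single-round in vitro selection with frozen incubation at −7 °C. Extended constructs were recovered by gel excision, streptavidin-bead capture and RT-PCR, and Illumina sequencing of input and output libraries kept genotypes with ≥10 input reads and ≥1 read per output. Fitness is the logarithm of genotype enrichment relative to wild-type enrichment, from inverse-variance-weighted replicate averages, with a logarithm base of 2.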
row,Variant,polymerase ribozyme fitness (log ratio)
1,A6U G17C A50C U87A,-4.69
2,A6U G63A,-0.932
3,A6U G63C,-0.899
4,U7A C13U C22G A103C U130C,-4.17
5,A6U A29U C34A G69U A90G A95U,-2.59
6,U7A C40U U54A C56A C73A G77U G117A G122A,-3.15
7,U7A A16C,-0.994
8,A6U A16U,-1.42
9,A6U C8A G71U C101G,-1.45
10,A6U A105C U116C,-6.02
11,U7A C124A,2.16
12,A6U A27G C82U G110U,-2.67
13,A6U A37C,-0.207
14,A6U A37U,-0.0542
15,A6U C72G C73U A90U C98G C102U A108U C123G,-7.4
16,U7A C40U G110A,-1.33
17,A6U C11U G47C C85U C114A,-4.43
18,U7A G36C A37G C97U G113C,-3.07
19,A6U G117U,-2.79
20,U7A C12A A83C,-0.0554
21,U7A,0.257
22,A6U A46U C72A U96A G120A G128A,-2.92
23,U7A C34A C53A,-2.31
24,A6U C13G A74U C88U C97U G117C C124G U132A,-3.99

row,Variant,polymerase ribozyme fitness (log ratio)
1,A6U G45U C49U C76G,-0.941
2,A6U C13G G69U C88U C97U G117C C124G U132A,-1.66
3,U7A A27U G61C G117U,-5.69
4,A6U C79A G110A,-2.78
5,A6U C13U G61C U112A,-1.1
6,U7A C64A U106C,-5.95
7,A6U U38G C73U U125A,-1.49
8,A6U A50U A95C,-1.57
9,A6U C12U C56U A95G,-0.128
10,A6G G48U,-0.663
11,U7A A26U C49U C94G C123G,-4.09
12,A6U U129A,-1.16
13,A6U G57C G69A A90G,-2.65
14,A6U C70U U129C,-1.04
15,A6U G51C A74U G113A C123G,-4.2
16,U7A G19U U87G,-3.3
17,A6U G45A A50U G113C,-5.5
18,A6U G44A C94A,-1.69
19,A6U G45C C101U G110C,-5.31
20,U7A G10C C72U,-0.8
21,A6U G48U U81C A121G,0.747
22,A6U G52A U116C,-1.36
23,U7A C89G A91U C97U C115U,-1.85
24,A6U A24C C28A G47U G65C C102G G107A G120A G127U,-6.59

row,Variant,polymerase ribozyme fitness (log ratio)
1,U7A A37U C70G U78A,-3.04
2,A6G C98U U106A C124A,1.28
3,A6U G47A C62A C123A,-1.69
4,A6U C11U,0.0672
5,A6G U14G C28U G110C C115U U125A,-6.22
6,A6U G51C C56U,-2.91
7,A6U A46U U116A,-4.28
8,A6U C70U,-0.544
9,U7A C15A C101A U112A,0.0193
10,A6U G61A,-0.0423
11,A6U A18U G60U U112C,-0.222
12,U7A C31U A111G,-4.76
13,U7A C11G U55A,0.0928
14,U7A C94U A95U C123U G127U,-1.38
15,A6U U38G U59C C86A,-3.66
16,A6G C102A C124A U130A,0.13
17,U7A A29G A83C,-0.648
18,A6U C34G C123U,-5.18
19,A6U G93A,-0.555
20,A6U C72A C85U A90G G107U U112A,-4.8
21,U7A C72U A91C G122U,-2.12
22,A6G G36C C72U C80A U116A C123A,-5.42
23,A6U C12A C124A,0.761
24,A6U C56G C76U C86A A90G,-1.7

row,Variant,polymerase ribozyme fitness (log ratio)
1,U7A C8G G45A U112A,1.66
2,A6G G61U,-0.271
3,U7A C56U,0.211
4,A6G G71A C82A A111U,-4.56
5,A6U A18U A74C C85G C115A U129G,-4.74
6,A6U C11G G48U C82G C85U,-0.874
7,U7A A18U C22G C72A,-4.55
8,U7A A26U,-2.56
9,A6U C15U,-1.43
10,A6U U54G C70A,-3.12
11,U7A A41G,0.181
12,A6U C70A C124A,0.175
13,A6U G10A C22U C82A,-5.33
14,U7A C13U G36A G69U,-0.408
15,U7A C72U,-0.218
16,A6G G45U C73U C98U A111G U125A,-5.29
17,A6U G48C U54A C89A C97U,-3.1
18,A6U C8A C12A A41U C79A C89A C94U C101U U116G C123U,-6.77
19,A6U U106C G107A C114U,-5.44
20,A6U A90U,-0.93
21,A6U C15G C40U G61C C79A,-6.15
22,A6G U7C C12U G23U C70U C72A U87G,-6.73
23,U7A C62G G117U,-5.82
24,A6U G48U G93A G110U,-2.34

row,Variant,polymerase ribozyme fitness (log ratio)
1,U7A G10A C53U G61C,-0.31
2,U7A A18G C20A G39A C70U U116C G120U C123U C124A,-6.7
3,A6U A43C A50G G61A C115A U116C,-4.89
4,U7A C86G,-0.205
5,A6U U9C G47A G63U,-1.85
6,A6U C13U C72A,0.0717
7,A6U C76G C98U,-1.31
8,A6U C12U C76A C115U,-2.81
9,A6U C12U,-0.0768
10,A6U C12A,0.811
11,U7A G35A G71A G77C C124A,-5.19
12,A6U C8G G60A C72A U130C,-0.0324
13,A6G G39U G69U A119U,-0.0303
14,A6U C49A C62U C70G C104A U125A,-7.09
15,A6U C8G C72U C86G,-0.629
16,U7A C11G C12U A18C A29G G47U G60C,-5.79
17,A6G G61C C89U,-2.67
18,A6U C11G U55C,-0.352
19,A6U A37U C101G C123A U125G U132A,-2.11
20,U7A C12A G35A C53U,-5.51
21,A6U A37G G127C G135U,-1.84
22,A6U C8G C13A G19U G61C G93C G120C,-5.97
23,A6U C13A G36C C123U,0.00441
24,U7A G10A G52U C62G,-2.23

row,Variant,polymerase ribozyme fitness (log ratio)
1,A6U C72G U78G U130C,-0.0449
2,A6U G48U C53A C88G C102A,-3.09
3,A6U U7C C102U G127C U131G,-2.65
4,A6U G60U G110U,-0.996
5,A6U A95C,-0.905
6,U7A G17U C62U A111C G135U,-4.01
7,A6G G42U C73A C85U U106G G110U,-5.96
8,U7A G17U,-1.25
9,U7A A84C U116C,-0.218
10,A6U C8G G60A U130C,-0.0856
11,A6U C94G G120A,0.554
12,A6G G63C,0.397
13,A6G G63U,-1.16
14,U7A C12G A18U G45U U54G,-3.04
15,A6U A91C,-1.21
16,U7A G10C C56U C62U C80A A84U G110A C124A U133A,-7.38
17,A6U A46C C49G C82G C89U,-2.2
18,A6U C15A U21G G58A A90G U112C G127A,-4.37
19,A6U G10C C34A U81A U112C G120C,-3.64
20,U7A A37U G71U A95G U96A,-0.194
21,A6U U78C,0.144
22,A6U C99U C115U,-7.34
23,A6U C53U C73U,0.296
24,A6U C56A A105G,-2.46

row,Variant,polymerase ribozyme fitness (log ratio)
1,A6U C12G C89G A105C U106G,-3.35
2,U7A C64U,-0.637
3,A6U C124U U133G,0.942
4,U7A C53U A74C,0.916
5,A6U C12G G45C,-1.57
6,A6U U9A A26U,-1.87
7,U7A C8A C11G G47U G57U C85A,-2.04
8,A6G U7C,-0.442
9,A6G U59C,-0.609
10,A6G U9C,0.178
11,A6G G69U C115A G120A,0.502
12,A6U C64U,-0.037
13,A6U C8G G44C C64U U96C,-1.02
14,A6U A83U C115U,-1.65
15,A6U C62A A111U G122A,-5.22
16,A6U U96C C101U G122A,-0.932
17,A6G C99A C123U,-5.05
18,A6U A50G G117A,-1.14
19,A6U G61C U78G U130C,-3.92
20,A6U A50U,-0.776
21,U7A C49U,0.388
22,U7A G10A G52A C115U,-1.15
23,A6U C70U C88A U129C,-1.84
